Earlier results as cited in paper PMC3565385 (Journal of computer-aided molecular design, 2012).

Tested on: PTH1R
Settings: ΔΔG = RT ln(Ki mutant/Ki wild-type) from published alanine scanning

B1: PTH R20A: parathyroid hormone with Arg20 replaced by alanine (peptide, UniProt P01270 32-115, looked up, variant R20A)
Parathyroid hormone: SVSEIQLMHNLGKHLNSMEAVEWLRKKLQDVHNFVALGAPLAPRDAGSQRPRKKEDNVLVESHEKSLGEADKADVNVLTKAKSQ
modifications: Parathyroid hormone
- experimental ΔΔG: 12.4 kJ/mol
